According to publication PMC3172333:
Like-named read-outs stand apart in the source and are kept apart here.

Legend:
[1] = target: recombinant Aα221-610 fragment corresponding to the human fibrinogen αC region (non-cross-linked) (human); assay: SEC
[2] = target: recombinant Aα221-610 fragment corresponding to the human fibrinogen αC region (non-cross-linked) (human); assay: SEC; remark: listed apart in the source
[3] = target: recombinant Aα221-610 fragment corresponding to the human fibrinogen αC region (non-cross-linked) (human); assay: SEC; remark: listed apart in the source
[4] = target: recombinant Aα221-610 fragment corresponding to the human fibrinogen αC region (non-cross-linked) (human); assay: SEC; remark: listed apart in the source
[5] = target: recombinant Aα221-610 fragment corresponding to the human fibrinogen αC region (non-cross-linked) (human); assay: SEC; remark: listed apart in the source
[6] = target: cross-linked Aα221-610 oligomers (factor XIIIa cross-linked) (human); assay: SPR

percent monomer [1] [%]	percent oligomers [1] [%]	percent oligomers (after overnight incubation) [1] [%]	percent oligomers (immediately after dilution) [1] [%]	percent oligomers [2] [%]	percent monomer [3] [%]	percent oligomers [4] [%]	percent oligomers [5] [%]	Kd [6] [nM]	Substance
60	5	11	18	15	10	60	22	–	recombinant Aα221-610 fragment corresponding to the human fibrinogen αC region (non-cross-linked) (domain or fragment)
–	–	–	–	–	–	–	–	458	human Glu-plasminogen (natural protein)
–	–	–	–	–	–	–	–	440	recombinant single-chain tissue type plasminogen activator (enzyme)
